Assay results: the supplement of paper PMC10065799, “High-throughput profiling of sequence recognition by tyrosine kinases and SH2 domains using bacterial peptide display” (eLife, 2023)

Biological target: Fyn (UniProt P06241)
Assay: phosphorylation enrichment, bacterial display (enrichment ratio); higher = better substrate or ligand; peptides without Tyr show the background
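Note: 11-residue human phosphosite peptides and single-mutation variants displayed on the E. coli surface, counted by deep sequencing, each peptide's frequency after selection divided by its frequency in the unselected input library; frequency after pTyr selection over input frequency; kinase dosed for 20-30% of maximal phosphorylation in three min.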

Sequence of Fyn (P06241 whole entry, looked up): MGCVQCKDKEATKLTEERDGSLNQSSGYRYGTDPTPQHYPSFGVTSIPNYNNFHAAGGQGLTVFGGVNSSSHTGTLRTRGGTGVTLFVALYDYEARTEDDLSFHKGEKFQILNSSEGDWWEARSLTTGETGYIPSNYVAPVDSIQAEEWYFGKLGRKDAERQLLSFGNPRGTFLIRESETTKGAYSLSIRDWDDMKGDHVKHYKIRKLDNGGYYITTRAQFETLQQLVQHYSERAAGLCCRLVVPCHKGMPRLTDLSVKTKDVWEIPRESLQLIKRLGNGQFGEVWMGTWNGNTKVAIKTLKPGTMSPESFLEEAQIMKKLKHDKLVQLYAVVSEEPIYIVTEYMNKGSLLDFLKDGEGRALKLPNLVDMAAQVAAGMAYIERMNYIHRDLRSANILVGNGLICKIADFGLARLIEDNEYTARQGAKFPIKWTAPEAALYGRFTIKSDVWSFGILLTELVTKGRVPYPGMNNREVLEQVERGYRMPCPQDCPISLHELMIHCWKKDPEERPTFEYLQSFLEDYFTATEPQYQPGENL

Compared with DYYDLYGGKKF [PTPN11_Y66_E69K], LGGAMYYLEAE [PKHD1_Y452] is lower in phosphorylation enrichment: 3.27 for the first, 2.54 for the second.

First: LLVVLCKFRCF [PSEN1_Y154_Y154C_YF]
Second: ISNATYKEIGL [FLT1_Y199]
The phosphorylation enrichment of the first is higher: 0.731 for the first, 0.447 for the second.

First: KLVDVYVNDAF [PGK1_Y161_G158V]
Second: VYSSDYFSFVL [USP24_Y2138]
The phosphorylation enrichment of the first is lower: 0.574 for the first, 4.46 for the second.

First: ACVARYIFKRL [LPCAT3_Y348_W344C]
Second: QYQEKYKQVEQ [HCN4_Y531]
The phosphorylation enrichment of the first is lower: 0.635 for the first, 0.821 for the second.

Compared with LEQQKYTVTID [IKBKB_Y199_V203I], RETSLYKACER [ASB2_Y162_P160S] is lower in phosphorylation enrichment: 0.638 for the first, 0.481 for the second.

Compared with KTTILYKLKLG [ARF1_Y35], MQMEEYRGWVE [BTNL2_Y91] is higher in phosphorylation enrichment: 0.358 for the first, 0.409 for the second.

First: GNHVSYFQSDG [CACNA1C_Y1757_YF]
Second: PDSVDYRKKGY [CTSK_Y121]
The phosphorylation enrichment of the first is lower: 0.458 for the first, 0.749 for the second.

Compared with SISFDYCRVPM [BST2_Y8_T4I_YF], VPLLEYYWDIF [CDAN1_Y712_R714W] is higher in phosphorylation enrichment: 0.463 for the first, 0.879 for the second.

Going from KWTVDYLSQVG [TYW5_Y48] to LARDMYDKEFF [MET_Y1230_YF], the phosphorylation enrichment rises from 0.443 to 0.507.

Compared with QFNMQYSSSAA [ERBB2IP_Y981_I979M_YF], QEGPEYWDQQT [HLA-A_Y83_E87Q] is higher in phosphorylation enrichment: 0.388 for the first, 0.741 for the second.

First: SEDSEYFKAFE [CASQ2_Y178_YF]
Second: FADIAYIFRHG [PAH_Y166_N167I_YF]
The phosphorylation enrichment of the first is higher: 0.572 for the first, 0.508 for the second.

Going from CTTTHYNFMCN [TP53_Y234_I232T_YF] to SNPAFYVLEGV [INPPL1_Y987_N982S_YF], the phosphorylation enrichment rises from 0.437 to 0.648.

Compared with IHFPPYTDWNQ [ALDH3B2_Y365_YF], GVRFIYTIDGS [DCX_Y105_YF] is higher in phosphorylation enrichment: 0.526 for the first, 1.04 for the second.

Compared with FSPCDYQPCLA [TNS1_Y798_Y796C_YF], MDNQEYKDAFT [BRDT_Y331_K336T_YF] is lower in phosphorylation enrichment: 0.581 for the first, 0.486 for the second.

Compared with NNRVFYGNSDR [RS1_Y177], ALTDNYMYLVI [HAGH_Y61] is higher in phosphorylation enrichment: 0.395 for the first, 0.848 for the second.

Compared with SVTCTYSPALH [TP53_Y126_N131H], EVKEAYMGSVL [ACAT1_Y90_N93S] is lower in phosphorylation enrichment: 0.545 for the first, 0.489 for the second.

QSPQLYKQLCI [DARS1_Y253_M256L] was tested, and the phosphorylation enrichment was 0.719.

Biological target: Fes (UniProt P07332)
Sequence (P07332 whole entry, looked up): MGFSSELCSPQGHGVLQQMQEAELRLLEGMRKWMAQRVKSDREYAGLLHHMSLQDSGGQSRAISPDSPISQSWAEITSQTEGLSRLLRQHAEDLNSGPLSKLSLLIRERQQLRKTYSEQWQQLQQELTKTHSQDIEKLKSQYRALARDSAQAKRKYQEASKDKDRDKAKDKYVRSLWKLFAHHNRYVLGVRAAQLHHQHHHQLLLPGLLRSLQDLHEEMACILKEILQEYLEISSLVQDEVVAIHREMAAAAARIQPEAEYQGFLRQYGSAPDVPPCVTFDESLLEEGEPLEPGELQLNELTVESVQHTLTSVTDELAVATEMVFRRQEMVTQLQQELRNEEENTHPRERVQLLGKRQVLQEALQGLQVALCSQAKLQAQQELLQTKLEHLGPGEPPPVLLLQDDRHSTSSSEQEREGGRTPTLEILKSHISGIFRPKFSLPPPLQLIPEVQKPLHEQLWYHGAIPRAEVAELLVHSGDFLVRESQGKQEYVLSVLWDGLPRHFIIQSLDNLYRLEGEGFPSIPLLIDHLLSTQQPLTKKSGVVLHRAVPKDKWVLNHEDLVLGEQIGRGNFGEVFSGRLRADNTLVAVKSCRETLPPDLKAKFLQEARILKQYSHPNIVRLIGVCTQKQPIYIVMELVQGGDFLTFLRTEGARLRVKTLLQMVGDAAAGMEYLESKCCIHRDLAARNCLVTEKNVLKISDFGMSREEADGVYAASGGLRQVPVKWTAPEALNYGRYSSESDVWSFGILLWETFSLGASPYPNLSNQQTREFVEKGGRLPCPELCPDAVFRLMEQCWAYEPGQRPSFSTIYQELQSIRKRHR
Assay: as above

Compared with DYYDLYGGKKF [PTPN11_Y66_E69K], LGGAMYYLEAE [PKHD1_Y452] is higher in phosphorylation enrichment: 0.825 for the first, 1.61 for the second.

First: LLVVLCKFRCF [PSEN1_Y154_Y154C_YF]
Second: ISNATYKEIGL [FLT1_Y199]
The phosphorylation enrichment of the first is higher: 1.73 for the first, 0.605 for the second.

Compared with KLVDVYVNDAF [PGK1_Y161_G158V], VYSSDYFSFVL [USP24_Y2138] is higher in phosphorylation enrichment: 0.81 for the first, 1.35 for the second.

Going from ACVARYIFKRL [LPCAT3_Y348_W344C] to QYQEKYKQVEQ [HCN4_Y531], the phosphorylation enrichment rises from 0.841 to 1.12.

Compared with LEQQKYTVTID [IKBKB_Y199_V203I], RETSLYKACER [ASB2_Y162_P160S] is lower in phosphorylation enrichment: 1.57 for the first, 0.954 for the second.

Going from KTTILYKLKLG [ARF1_Y35] to MQMEEYRGWVE [BTNL2_Y91], the phosphorylation enrichment rises from 1 to 1.07.

Going from GNHVSYFQSDG [CACNA1C_Y1757_YF] to PDSVDYRKKGY [CTSK_Y121], the phosphorylation enrichment rises from 0.791 to 1.08.

First: SISFDYCRVPM [BST2_Y8_T4I_YF]
Second: VPLLEYYWDIF [CDAN1_Y712_R714W]
The phosphorylation enrichment of the first is lower: 1.15 for the first, 1.46 for the second.

First: KWTVDYLSQVG [TYW5_Y48]
Second: LARDMYDKEFF [MET_Y1230_YF]
The phosphorylation enrichment of the first is higher: 1.05 for the first, 0.945 for the second.

Compared with QFNMQYSSSAA [ERBB2IP_Y981_I979M_YF], QEGPEYWDQQT [HLA-A_Y83_E87Q] is higher in phosphorylation enrichment: 1.18 for the first, 2.21 for the second.

Compared with SEDSEYFKAFE [CASQ2_Y178_YF], FADIAYIFRHG [PAH_Y166_N167I_YF] is lower in phosphorylation enrichment: 1.41 for the first, 1.03 for the second.

Going from CTTTHYNFMCN [TP53_Y234_I232T_YF] to SNPAFYVLEGV [INPPL1_Y987_N982S_YF], the phosphorylation enrichment rises from 0.758 to 1.06.

Compared with IHFPPYTDWNQ [ALDH3B2_Y365_YF], GVRFIYTIDGS [DCX_Y105_YF] is higher in phosphorylation enrichment: 1.03 for the first, 1.59 for the second.

Going from FSPCDYQPCLA [TNS1_Y798_Y796C_YF] to MDNQEYKDAFT [BRDT_Y331_K336T_YF], the phosphorylation enrichment rises from 1.11 to 1.3.

First: NNRVFYGNSDR [RS1_Y177]
Second: ALTDNYMYLVI [HAGH_Y61]
The phosphorylation enrichment of the first is lower: 0.536 for the first, 1.49 for the second.

Going from SVTCTYSPALH [TP53_Y126_N131H] to EVKEAYMGSVL [ACAT1_Y90_N93S], the phosphorylation enrichment falls from 1.41 to 0.995.

Work on QSPQLYKQLCI [DARS1_Y253_M256L] yielded a phosphorylation enrichment of 1.12.

Biological target: EPHB2 (UniProt P29323)
Sequence (P29323 whole entry, looked up): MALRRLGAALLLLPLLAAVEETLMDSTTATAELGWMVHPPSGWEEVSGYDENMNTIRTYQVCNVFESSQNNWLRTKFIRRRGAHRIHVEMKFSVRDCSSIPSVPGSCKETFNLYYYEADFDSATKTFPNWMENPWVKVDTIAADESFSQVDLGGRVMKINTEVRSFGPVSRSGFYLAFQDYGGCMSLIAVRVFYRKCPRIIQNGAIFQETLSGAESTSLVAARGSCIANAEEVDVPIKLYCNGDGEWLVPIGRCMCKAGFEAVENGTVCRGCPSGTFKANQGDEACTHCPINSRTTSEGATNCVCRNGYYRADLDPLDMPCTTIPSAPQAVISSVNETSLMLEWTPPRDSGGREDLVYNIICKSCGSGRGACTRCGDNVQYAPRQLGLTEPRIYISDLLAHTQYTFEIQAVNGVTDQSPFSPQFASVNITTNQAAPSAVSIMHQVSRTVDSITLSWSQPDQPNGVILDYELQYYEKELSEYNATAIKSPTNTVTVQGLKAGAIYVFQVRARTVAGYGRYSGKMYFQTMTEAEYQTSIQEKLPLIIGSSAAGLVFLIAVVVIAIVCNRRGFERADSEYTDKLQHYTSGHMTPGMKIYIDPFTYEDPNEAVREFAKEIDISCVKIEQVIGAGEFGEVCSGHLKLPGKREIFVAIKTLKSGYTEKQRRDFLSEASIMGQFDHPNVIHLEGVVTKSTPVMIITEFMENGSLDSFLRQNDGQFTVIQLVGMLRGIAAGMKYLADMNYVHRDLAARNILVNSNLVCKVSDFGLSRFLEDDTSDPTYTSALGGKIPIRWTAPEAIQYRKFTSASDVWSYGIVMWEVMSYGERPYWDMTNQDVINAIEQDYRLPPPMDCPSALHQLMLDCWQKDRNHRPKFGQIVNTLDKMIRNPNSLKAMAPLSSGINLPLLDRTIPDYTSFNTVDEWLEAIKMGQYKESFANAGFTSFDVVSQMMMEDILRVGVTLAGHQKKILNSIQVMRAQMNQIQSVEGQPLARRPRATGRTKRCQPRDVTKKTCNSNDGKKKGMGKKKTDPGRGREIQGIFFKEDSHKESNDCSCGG
Assay: as above

Going from DYYDLYGGKKF [PTPN11_Y66_E69K] to LGGAMYYLEAE [PKHD1_Y452], the phosphorylation enrichment rises from 1.22 to 1.25.

First: LLVVLCKFRCF [PSEN1_Y154_Y154C_YF]
Second: ISNATYKEIGL [FLT1_Y199]
The phosphorylation enrichment of the first is higher: 0.694 for the first, 0.498 for the second.

Going from KLVDVYVNDAF [PGK1_Y161_G158V] to VYSSDYFSFVL [USP24_Y2138], the phosphorylation enrichment rises from 0.5 to 3.95.

Going from ACVARYIFKRL [LPCAT3_Y348_W344C] to QYQEKYKQVEQ [HCN4_Y531], the phosphorylation enrichment rises from 0.51 to 0.721.

First: LEQQKYTVTID [IKBKB_Y199_V203I]
Second: RETSLYKACER [ASB2_Y162_P160S]
The phosphorylation enrichment of the first is higher: 0.81 for the first, 0.609 for the second.

Going from KTTILYKLKLG [ARF1_Y35] to MQMEEYRGWVE [BTNL2_Y91], the phosphorylation enrichment rises from 0.411 to 0.711.

Going from GNHVSYFQSDG [CACNA1C_Y1757_YF] to PDSVDYRKKGY [CTSK_Y121], the phosphorylation enrichment rises from 0.427 to 1.67.

First: SISFDYCRVPM [BST2_Y8_T4I_YF]
Second: VPLLEYYWDIF [CDAN1_Y712_R714W]
The phosphorylation enrichment of the first is lower: 1.36 for the first, 1.54 for the second.

First: KWTVDYLSQVG [TYW5_Y48]
Second: LARDMYDKEFF [MET_Y1230_YF]
The phosphorylation enrichment of the first is lower: 0.494 for the first, 0.564 for the second.

Going from QFNMQYSSSAA [ERBB2IP_Y981_I979M_YF] to QEGPEYWDQQT [HLA-A_Y83_E87Q], the phosphorylation enrichment rises from 0.529 to 0.967.

First: SEDSEYFKAFE [CASQ2_Y178_YF]
Second: FADIAYIFRHG [PAH_Y166_N167I_YF]
The phosphorylation enrichment of the first is higher: 0.653 for the first, 0.487 for the second.

First: CTTTHYNFMCN [TP53_Y234_I232T_YF]
Second: SNPAFYVLEGV [INPPL1_Y987_N982S_YF]
The phosphorylation enrichment of the first is lower: 0.427 for the first, 0.559 for the second.

Compared with IHFPPYTDWNQ [ALDH3B2_Y365_YF], GVRFIYTIDGS [DCX_Y105_YF] is higher in phosphorylation enrichment: 0.524 for the first, 0.737 for the second.

First: FSPCDYQPCLA [TNS1_Y798_Y796C_YF]
Second: MDNQEYKDAFT [BRDT_Y331_K336T_YF]
The phosphorylation enrichment of the first is higher: 6.05 for the first, 0.913 for the second.

First: NNRVFYGNSDR [RS1_Y177]
Second: ALTDNYMYLVI [HAGH_Y61]
The phosphorylation enrichment of the first is lower: 0.378 for the first, 8.35 for the second.

First: SVTCTYSPALH [TP53_Y126_N131H]
Second: EVKEAYMGSVL [ACAT1_Y90_N93S]
The phosphorylation enrichment of the first is higher: 0.62 for the first, 0.532 for the second.

For QSPQLYKQLCI [DARS1_Y253_M256L], the phosphorylation enrichment was 0.957.

Biological target: Jak2 (UniProt O60674)
Sequence (O60674 whole entry, looked up): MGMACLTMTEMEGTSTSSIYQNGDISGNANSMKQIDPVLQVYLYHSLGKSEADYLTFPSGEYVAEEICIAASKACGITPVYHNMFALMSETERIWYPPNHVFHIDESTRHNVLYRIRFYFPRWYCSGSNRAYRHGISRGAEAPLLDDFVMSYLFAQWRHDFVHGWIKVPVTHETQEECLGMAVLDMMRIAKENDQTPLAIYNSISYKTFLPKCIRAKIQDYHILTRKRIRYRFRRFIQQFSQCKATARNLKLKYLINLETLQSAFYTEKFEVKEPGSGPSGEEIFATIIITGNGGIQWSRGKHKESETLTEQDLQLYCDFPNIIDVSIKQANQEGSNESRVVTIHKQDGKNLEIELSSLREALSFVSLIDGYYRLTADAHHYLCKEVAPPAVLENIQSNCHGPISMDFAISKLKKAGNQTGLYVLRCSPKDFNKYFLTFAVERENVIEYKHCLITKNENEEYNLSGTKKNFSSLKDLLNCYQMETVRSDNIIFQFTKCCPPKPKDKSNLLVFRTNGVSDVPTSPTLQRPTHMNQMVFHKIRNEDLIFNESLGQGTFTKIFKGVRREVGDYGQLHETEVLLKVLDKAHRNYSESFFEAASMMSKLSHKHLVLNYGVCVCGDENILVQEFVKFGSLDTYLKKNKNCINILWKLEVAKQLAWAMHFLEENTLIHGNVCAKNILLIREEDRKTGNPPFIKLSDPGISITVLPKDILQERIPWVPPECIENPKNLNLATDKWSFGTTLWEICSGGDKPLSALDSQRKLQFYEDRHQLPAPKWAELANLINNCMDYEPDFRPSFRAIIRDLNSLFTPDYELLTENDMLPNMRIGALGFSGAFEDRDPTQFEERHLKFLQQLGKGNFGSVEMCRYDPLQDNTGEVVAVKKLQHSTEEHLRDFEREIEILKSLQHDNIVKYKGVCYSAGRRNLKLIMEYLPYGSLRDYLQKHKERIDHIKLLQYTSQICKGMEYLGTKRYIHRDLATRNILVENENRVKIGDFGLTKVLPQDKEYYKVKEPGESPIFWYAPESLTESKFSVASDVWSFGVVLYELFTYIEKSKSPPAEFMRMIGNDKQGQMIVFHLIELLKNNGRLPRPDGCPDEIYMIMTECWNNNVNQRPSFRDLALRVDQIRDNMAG
Assay: as above

Going from DYYDLYGGKKF [PTPN11_Y66_E69K] to LGGAMYYLEAE [PKHD1_Y452], the phosphorylation enrichment rises from 0.971 to 1.42.

Going from LLVVLCKFRCF [PSEN1_Y154_Y154C_YF] to ISNATYKEIGL [FLT1_Y199], the phosphorylation enrichment falls from 1.82 to 0.442.

Going from KLVDVYVNDAF [PGK1_Y161_G158V] to VYSSDYFSFVL [USP24_Y2138], the phosphorylation enrichment rises from 0.661 to 5.25.

Compared with ACVARYIFKRL [LPCAT3_Y348_W344C], QYQEKYKQVEQ [HCN4_Y531] is higher in phosphorylation enrichment: 0.683 for the first, 0.858 for the second.

First: LEQQKYTVTID [IKBKB_Y199_V203I]
Second: RETSLYKACER [ASB2_Y162_P160S]
The phosphorylation enrichment of the first is lower: 1.02 for the first, 1.31 for the second.

Compared with KTTILYKLKLG [ARF1_Y35], MQMEEYRGWVE [BTNL2_Y91] is higher in phosphorylation enrichment: 0.909 for the first, 1.25 for the second.

Compared with GNHVSYFQSDG [CACNA1C_Y1757_YF], PDSVDYRKKGY [CTSK_Y121] is higher in phosphorylation enrichment: 0.636 for the first, 1.01 for the second.

Compared with SISFDYCRVPM [BST2_Y8_T4I_YF], VPLLEYYWDIF [CDAN1_Y712_R714W] is higher in phosphorylation enrichment: 1.43 for the first, 2.12 for the second.

Compared with KWTVDYLSQVG [TYW5_Y48], LARDMYDKEFF [MET_Y1230_YF] is lower in phosphorylation enrichment: 0.887 for the first, 0.702 for the second.

First: QFNMQYSSSAA [ERBB2IP_Y981_I979M_YF]
Second: QEGPEYWDQQT [HLA-A_Y83_E87Q]
The phosphorylation enrichment of the first is lower: 0.581 for the first, 2.33 for the second.

Compared with SEDSEYFKAFE [CASQ2_Y178_YF], FADIAYIFRHG [PAH_Y166_N167I_YF] is lower in phosphorylation enrichment: 1.34 for the first, 0.97 for the second.

Compared with CTTTHYNFMCN [TP53_Y234_I232T_YF], SNPAFYVLEGV [INPPL1_Y987_N982S_YF] is higher in phosphorylation enrichment: 0.561 for the first, 0.765 for the second.

Going from IHFPPYTDWNQ [ALDH3B2_Y365_YF] to GVRFIYTIDGS [DCX_Y105_YF], the phosphorylation enrichment rises from 0.894 to 1.45.

Going from FSPCDYQPCLA [TNS1_Y798_Y796C_YF] to MDNQEYKDAFT [BRDT_Y331_K336T_YF], the phosphorylation enrichment rises from 1.05 to 1.15.

First: NNRVFYGNSDR [RS1_Y177]
Second: ALTDNYMYLVI [HAGH_Y61]
The phosphorylation enrichment of the first is lower: 0.546 for the first, 2.46 for the second.

Compared with SVTCTYSPALH [TP53_Y126_N131H], EVKEAYMGSVL [ACAT1_Y90_N93S] is lower in phosphorylation enrichment: 1.23 for the first, 0.83 for the second.

With QSPQLYKQLCI [DARS1_Y253_M256L] the phosphorylation enrichment was 0.875.
